Laboratory results reported in patent publication US20090149339A1 (published 2009).
Ends that are not written are not given here. * marks the point of attachment. Biotin = O=C1N[C@H]2[C@H](CS[C@H]2CCCCC(=O)*)N1

The binders below were run against T1, GST-41.8 kD PDZ domain fusion protein (hypothetical 41.8 kD protein AA4-85; PDZ domain 1 of 1) (UniProt P08515 1-218 = GST) (assay: A and G assays).
T1 construct: also called hypoth
T1 sequence (P08515 1-218, tags or fused parts left off): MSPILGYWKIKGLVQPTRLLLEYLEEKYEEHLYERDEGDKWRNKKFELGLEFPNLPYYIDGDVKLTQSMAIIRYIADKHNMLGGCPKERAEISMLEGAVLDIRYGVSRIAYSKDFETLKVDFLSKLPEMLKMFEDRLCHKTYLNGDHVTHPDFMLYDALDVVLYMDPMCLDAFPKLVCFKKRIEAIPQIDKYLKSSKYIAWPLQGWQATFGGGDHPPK

Binder | binding result
Biotin-SVFSIPTLWSPWPPSSSSQL (also called CD3-eta) [CD3n C-terminal PL peptide AA4L, biotinylated] | binds
Biotin-HKAEIHAQPSDKERLTSDA [CD49F (Aform, alpha 6) C-terminal PL peptide AA12L, biotinylated] | binds

These binders were tested against T2, GST-PSD95 PDZ domain fusion protein (human post-synaptic density protein 95 AA387-724; PDZ domains 1-3 of 3) (human, UniProt P08515 1-218 = GST) (assay: A assay).
T2 sequence (P08515 1-218, tags or fused parts left off): as the sequence (P08515 1-218, tags or fused parts left off) above

Binder | binding result
Biotin-SVFSIPTLWSPWPPSSSSQL (also called CD3-eta) [CD3n C-terminal PL peptide AA4L, biotinylated] | binds

The binders below were run against GST-AF6 PDZ domain fusion protein (af-6 protein AA985-1077; PDZ domain 1 of 1) (UniProt P08515 1-218 = GST) (assay: A/G assays).
Sequence of GST-AF6 PDZ domain fusion protein (af-6 protein AA985-1077; PDZ domain 1 of 1) (P08515 1-218, tags or fused parts left off): as the sequence (P08515 1-218, tags or fused parts left off) above

Binder | binding result
Biotin-SVFSIPTLWSPWPPSSSSQL (also called CD3-eta) [CD3n C-terminal PL peptide AA4L, biotinylated] | no binding
Biotin-HKAEIHAQPSDKERLTSDA [CD49F (Aform, alpha 6) C-terminal PL peptide AA12L, biotinylated] | no binding

Each binder was assayed against T3, GST-KIAA0316 PDZ domain fusion protein (KIAA0316 AA197-284; PDZ domain 1 of 1) (UniProt P08515 1-218 = GST) (assay: A/G assays).
T3 construct: also called K316

Binder | binding result
Biotin-SVFSIPTLWSPWPPSSSSQL (also called CD3-eta) [CD3n C-terminal PL peptide AA4L, biotinylated] | no binding
Biotin-HKAEIHAQPSDKERLTSDA [CD49F (Aform, alpha 6) C-terminal PL peptide AA12L, biotinylated] | no binding

These binders were tested against T4, GST-KIAA0303 PDZ domain fusion protein (KIAA0303 AA652-742; PDZ domain 1 of 1) (UniProt P08515 1-218 = GST) (assay: A/G assays).
T4 construct: also called K303
T4 sequence (P08515 1-218, tags or fused parts left off): as the sequence (P08515 1-218, tags or fused parts left off) above

Binder | binding result
Biotin-SVFSIPTLWSPWPPSSSSQL (also called CD3-eta) [CD3n C-terminal PL peptide AA4L, biotinylated] | no binding
Biotin-HKAEIHAQPSDKERLTSDA [CD49F (Aform, alpha 6) C-terminal PL peptide AA12L, biotinylated] | no binding

These binders were tested against T5, GST-TAX2 PDZ domain fusion protein (human tax interaction protein 2 AA54-140; PDZ domain 1 of 1) (human, UniProt P08515 1-218 = GST) (assay: A/G assays).
T5 construct: also called TX 2

Binder | binding result
Biotin-SVFSIPTLWSPWPPSSSSQL (also called CD3-eta) [CD3n C-terminal PL peptide AA4L, biotinylated] | no binding
Biotin-HKAEIHAQPSDKERLTSDA [CD49F (Aform, alpha 6) C-terminal PL peptide AA12L, biotinylated] | no binding

The binders below were run against T6, GST-CASK PDZ domain fusion protein (CASK AA495-584; PDZ domain 1 of 1) (mouse, UniProt P08515 1-218 = GST) (assay: A/G assays).
T6 construct: also called mCASK
T6 sequence (P08515 1-218, tags or fused parts left off): as the sequence (P08515 1-218, tags or fused parts left off) above

Binder | binding result
Biotin-SVFSIPTLWSPWPPSSSSQL (also called CD3-eta) [CD3n C-terminal PL peptide AA4L, biotinylated] | no binding
Biotin-HKAEIHAQPSDKERLTSDA [CD49F (Aform, alpha 6) C-terminal PL peptide AA12L, biotinylated] | no binding

Each binder was assayed against T7, GST-TAX33 PDZ domain fusion protein (tax interaction protein 33 AA73-162; PDZ domain 1 of 1) (UniProt P08515 1-218 = GST) (assay: A/G assays).
T7 construct: also called TX33
T7 sequence (P08515 1-218, tags or fused parts left off): as the sequence (P08515 1-218, tags or fused parts left off) above

Binder | binding result
Biotin-SVFSIPTLWSPWPPSSSSQL (also called CD3-eta) [CD3n C-terminal PL peptide AA4L, biotinylated] | no binding
Biotin-HKAEIHAQPSDKERLTSDA [CD49F (Aform, alpha 6) C-terminal PL peptide AA12L, biotinylated] | no binding

Each binder was assayed against T8, GST-MPP2 PDZ domain fusion protein (maguk p55 subfamily member 2 (DLG2) AA185-273; PDZ domain 1 of 1) (UniProt P08515 1-218 = GST) (assay: A/G assays).
T8 construct: also called MMP2
T8 sequence (P08515 1-218, tags or fused parts left off): as the sequence (P08515 1-218, tags or fused parts left off) above

Binder | binding result
Biotin-SVFSIPTLWSPWPPSSSSQL (also called CD3-eta) [CD3n C-terminal PL peptide AA4L, biotinylated] | no binding
Biotin-HKAEIHAQPSDKERLTSDA [CD49F (Aform, alpha 6) C-terminal PL peptide AA12L, biotinylated] | no binding

Each binder was assayed against GST-prIL16 PDZ domain fusion protein (putative interleukin 16 precursor AA170-383; PDZ domains 1-2 of 2) (UniProt P08515 1-218 = GST) (assay: A/G assays).
Sequence of GST-prIL16 PDZ domain fusion protein (putative interleukin 16 precursor AA170-383; PDZ domains 1-2 of 2) (P08515 1-218, tags or fused parts left off): as the sequence (P08515 1-218, tags or fused parts left off) above

Binder | binding result
Biotin-SVFSIPTLWSPWPPSSSSQL (also called CD3-eta) [CD3n C-terminal PL peptide AA4L, biotinylated] | no binding
Biotin-HKAEIHAQPSDKERLTSDA [CD49F (Aform, alpha 6) C-terminal PL peptide AA12L, biotinylated] | no binding

The binders below were run against T9, GST-TAX43 PDZ domain fusion protein (human tax interaction protein 43 AA15-85; PDZ domain 1 of 1) (human, UniProt P08515 1-218 = GST) (assay: A/G assays).
T9 construct: also called TX 43
T9 sequence (P08515 1-218, tags or fused parts left off): as the sequence (P08515 1-218, tags or fused parts left off) above

Binder | binding result
Biotin-SVFSIPTLWSPWPPSSSSQL (also called CD3-eta) [CD3n C-terminal PL peptide AA4L, biotinylated] | no binding
Biotin-HKAEIHAQPSDKERLTSDA [CD49F (Aform, alpha 6) C-terminal PL peptide AA12L, biotinylated] | no binding

These binders were tested against GST-MINT3 PDZ domain fusion protein (human MINT3 AA11-52; PDZ domain 1 of 1) (human, UniProt P08515 1-218 = GST) (assay: A/G assays).
Sequence of GST-MINT3 PDZ domain fusion protein (human MINT3 AA11-52; PDZ domain 1 of 1) (P08515 1-218, tags or fused parts left off): as the sequence (P08515 1-218, tags or fused parts left off) above

Binder | binding result
Biotin-SVFSIPTLWSPWPPSSSSQL (also called CD3-eta) [CD3n C-terminal PL peptide AA4L, biotinylated] | no binding
Biotin-HKAEIHAQPSDKERLTSDA [CD49F (Aform, alpha 6) C-terminal PL peptide AA12L, biotinylated] | no binding

The binders below were run against GST-TIAM1 PDZ domain fusion protein (T-lymphoma invasion and metastasis inducing protein 1 AA1001-1088); PDZ 1 … (UniProt P08515 1-218 = GST) (assay: A/G assays).
Sequence of GST-TIAM1 PDZ domain fusion protein (T-lymphoma invasion and metastasis inducing protein 1 AA1001-1088); PDZ 1 … (P08515 1-218, tags or fused parts left off): as the sequence (P08515 1-218, tags or fused parts left off) above

Binder | binding result
Biotin-SVFSIPTLWSPWPPSSSSQL (also called CD3-eta) [CD3n C-terminal PL peptide AA4L, biotinylated] | no binding
Biotin-HKAEIHAQPSDKERLTSDA [CD49F (Aform, alpha 6) C-terminal PL peptide AA12L, biotinylated] | no binding

These binders were tested against T10, GST-KIAA0559 PDZ domain fusion protein (KIAA0559 AA766-870; PDZ1 of 1) (UniProt P08515 1-218 = GST) (assay: A/G assays).
T10 construct: also called K559
T10 sequence (P08515 1-218, tags or fused parts left off): as the sequence (P08515 1-218, tags or fused parts left off) above

Binder | binding result
Biotin-SVFSIPTLWSPWPPSSSSQL (also called CD3-eta) [CD3n C-terminal PL peptide AA4L, biotinylated] | no binding
Biotin-HKAEIHAQPSDKERLTSDA [CD49F (Aform, alpha 6) C-terminal PL peptide AA12L, biotinylated] | no binding

These binders were tested against T11, GST-RGS12 PDZ domain fusion protein (human regulator of G-protein signalling 12 AA35-103; PDZ domain 1 of 1) (human, UniProt P08515 1-218 = GST) (assay: A/G assays).
T11 construct: also called RSG12
T11 sequence (P08515 1-218, tags or fused parts left off): as the sequence (P08515 1-218, tags or fused parts left off) above

Binder | binding result
Biotin-SVFSIPTLWSPWPPSSSSQL (also called CD3-eta) [CD3n C-terminal PL peptide AA4L, biotinylated] | no binding
Biotin-HKAEIHAQPSDKERLTSDA [CD49F (Aform, alpha 6) C-terminal PL peptide AA12L, biotinylated] | no binding

These binders were tested against T12, GST-SYN1a PDZ domain fusion protein (alpha1-syntrophin AA96-189; PDZ domain 1 of 1) (UniProt P08515 1-218 = GST) (assay: A/G assays).
T12 construct: also called SYN 1 alpha; SYNTR 1 alpha

Binder | binding result
Biotin-SVFSIPTLWSPWPPSSSSQL (also called CD3-eta) [CD3n C-terminal PL peptide AA4L, biotinylated] | no binding
Biotin-HKAEIHAQPSDKERLTSDA [CD49F (Aform, alpha 6) C-terminal PL peptide AA12L, biotinylated] | no binding

What follows are binders tested against GST-DVL1 PDZ domain fusion protein (human dishevelled segment polarity protein homolog AA248-340); PDZ domain … (human, UniProt P08515 1-218 = GST) (assay: A/G assays).
Sequence of GST-DVL1 PDZ domain fusion protein (human dishevelled segment polarity protein homolog AA248-340); PDZ domain … (P08515 1-218, tags or fused parts left off): as the sequence (P08515 1-218, tags or fused parts left off) above

Binder | binding result
Biotin-SVFSIPTLWSPWPPSSSSQL (also called CD3-eta) [CD3n C-terminal PL peptide AA4L, biotinylated] | no binding
Biotin-HKAEIHAQPSDKERLTSDA [CD49F (Aform, alpha 6) C-terminal PL peptide AA12L, biotinylated] | no binding

Each binder was assayed against GST-NOS1 PDZ domain fusion protein (human neuronal nitric oxide synthase; PDZ domain 1 of 1) (human, UniProt P08515 1-218 = GST) (assay: A/G assays).
Sequence of GST-NOS1 PDZ domain fusion protein (human neuronal nitric oxide synthase; PDZ domain 1 of 1) (P08515 1-218, tags or fused parts left off): as the sequence (P08515 1-218, tags or fused parts left off) above

Binder | binding result
Biotin-SVFSIPTLWSPWPPSSSSQL (also called CD3-eta) [CD3n C-terminal PL peptide AA4L, biotinylated] | no binding
Biotin-HKAEIHAQPSDKERLTSDA [CD49F (Aform, alpha 6) C-terminal PL peptide AA12L, biotinylated] | no binding

These binders were tested against GST-PTN-4 PDZ domain fusion protein (protein-tyrosine phosphatase meg1 AA774-862; PDZ domain 1 of 1) (UniProt P08515 1-218 = GST) (assay: A/G assays).

Binder | binding result
Biotin-SVFSIPTLWSPWPPSSSSQL (also called CD3-eta) [CD3n C-terminal PL peptide AA4L, biotinylated] | no binding
Biotin-HKAEIHAQPSDKERLTSDA [CD49F (Aform, alpha 6) C-terminal PL peptide AA12L, biotinylated] | no binding

Each binder was assayed against T13, GST-CBP PDZ domain fusion protein (Cytohesin binding protein HE AA85-175; PDZ domain 1 of 1) (UniProt P08515 1-218 = GST) (assay: A/G assays).
T13 construct: also called Prot
T13 sequence (P08515 1-218, tags or fused parts left off): as the sequence (P08515 1-218, tags or fused parts left off) above

Binder | binding result
Biotin-SVFSIPTLWSPWPPSSSSQL (also called CD3-eta) [CD3n C-terminal PL peptide AA4L, biotinylated] | no binding
Biotin-HKAEIHAQPSDKERLTSDA [CD49F (Aform, alpha 6) C-terminal PL peptide AA12L, biotinylated] | no binding

What follows are binders tested against GST-LIM PDZ domain fusion protein (Human LIM protein AA29-112; PDZ domain 1 of 1) (human, UniProt P08515 1-218 = GST) (assay: A/G assays).
Sequence of GST-LIM PDZ domain fusion protein (Human LIM protein AA29-112; PDZ domain 1 of 1) (P08515 1-218, tags or fused parts left off): as the sequence (P08515 1-218, tags or fused parts left off) above

Binder | binding result
Biotin-SVFSIPTLWSPWPPSSSSQL (also called CD3-eta) [CD3n C-terminal PL peptide AA4L, biotinylated] | no binding
Biotin-HKAEIHAQPSDKERLTSDA [CD49F (Aform, alpha 6) C-terminal PL peptide AA12L, biotinylated] | no binding

These binders were tested against GST-MPP1 PDZ domain fusion protein (55 Kd erythrocyte membrane protein AA101-186; PDZ domain 1 of 1) (UniProt P08515 1-218 = GST) (assay: A/G assays).
Sequence of GST-MPP1 PDZ domain fusion protein (55 Kd erythrocyte membrane protein AA101-186; PDZ domain 1 of 1) (P08515 1-218, tags or fused parts left off): as the sequence (P08515 1-218, tags or fused parts left off) above

Binder | binding result
Biotin-SVFSIPTLWSPWPPSSSSQL (also called CD3-eta) [CD3n C-terminal PL peptide AA4L, biotinylated] | no binding
Biotin-HKAEIHAQPSDKERLTSDA [CD49F (Aform, alpha 6) C-terminal PL peptide AA12L, biotinylated] | no binding

The binders below were run against T14, GST-TAX40 PDZ domain fusion protein (human tax interaction protein 40 AA35-137; PDZ domain 1 of 1) (human, UniProt P08515 1-218 = GST) (assay: A/G assays).
T14 construct: also called TX 40
T14 sequence (P08515 1-218, tags or fused parts left off): as the sequence (P08515 1-218, tags or fused parts left off) above

Binder | binding result
Biotin-SVFSIPTLWSPWPPSSSSQL (also called CD3-eta) [CD3n C-terminal PL peptide AA4L, biotinylated] | no binding
Biotin-HKAEIHAQPSDKERLTSDA [CD49F (Aform, alpha 6) C-terminal PL peptide AA12L, biotinylated] | no binding

What follows are binders tested against T2, GST-PSD95 PDZ domain fusion protein … (assay: A/G assays).

Binder | binding result
Biotin-HKAEIHAQPSDKERLTSDA [CD49F (Aform, alpha 6) C-terminal PL peptide AA12L, biotinylated] | no binding

Each binder was assayed against GST-LIMK2 PDZ domain fusion protein (human LIM domain kinase 2 AA185-275; PDZ domain 1 of 1) (human, UniProt P08515 1-218 = GST) (assay: A/G assays).
Sequence of GST-LIMK2 PDZ domain fusion protein (human LIM domain kinase 2 AA185-275; PDZ domain 1 of 1) (P08515 1-218, tags or fused parts left off): as the sequence (P08515 1-218, tags or fused parts left off) above

Binder | binding result
Biotin-SVFSIPTLWSPWPPSSSSQL (also called CD3-eta) [CD3n C-terminal PL peptide AA4L, biotinylated] | no binding
Biotin-HKAEIHAQPSDKERLTSDA [CD49F (Aform, alpha 6) C-terminal PL peptide AA12L, biotinylated] | no binding

What follows are binders tested against T15, GST-NeDLG PDZ domain fusion protein (presynaptic protein sao102, neuroendocrine-dlg; PDZ domains 1-2 of 3) (UniProt P08515 1-218 = GST) (assay: A/G assays).
T15 construct: also called NeDLG1
T15 sequence (P08515 1-218, tags or fused parts left off): as the sequence (P08515 1-218, tags or fused parts left off) above

Binder | binding result
Biotin-SVFSIPTLWSPWPPSSSSQL (also called CD3-eta) [CD3n C-terminal PL peptide AA4L, biotinylated] | no binding
Biotin-HKAEIHAQPSDKERLTSDA [CD49F (Aform, alpha 6) C-terminal PL peptide AA12L, biotinylated] | no binding
